Results taken from US20190233517A1.

Columns and labels:
Daudi = test: FACS binding; Daudi cells
Raji (human) = Raji (human) (UniProt P11836); test: FACS binding; Raji cells
HER3 = HER3 (UniProt P21860); test: kinetic binding data, method not stated

Chain of Raji (human) (P11836 whole entry): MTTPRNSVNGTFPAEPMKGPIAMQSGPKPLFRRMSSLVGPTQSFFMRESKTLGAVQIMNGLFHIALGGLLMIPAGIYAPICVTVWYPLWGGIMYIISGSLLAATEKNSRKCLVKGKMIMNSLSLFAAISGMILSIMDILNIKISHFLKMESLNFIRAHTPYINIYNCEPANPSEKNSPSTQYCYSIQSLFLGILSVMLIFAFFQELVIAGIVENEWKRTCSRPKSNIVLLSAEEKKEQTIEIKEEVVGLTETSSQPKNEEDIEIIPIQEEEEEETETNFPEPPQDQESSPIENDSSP

Epratuzumab/ Ofatumumab (1:1) gave an EC50 (Daudi) of 6.98 nM.

Substance Epratuzuman/ Ofatumumab (1:1) has an EC50 (Raji (human)) of 3.25 nM.

Substance “FIT019a-Ig HER3 (patritumab)/EGFR (Panitumumab) (bispecific antibody)” has a Kd (HER3) of 0.0321 nM.
